The source of these data is article doi:10.1101/2023.10.23.563088.

Assay [1] addresses gramicidin D (the natural mixture of linear gramicidins).
Assay [2] has the same target. This is another data set of the same source.

“gramicidin D (the natural mixture of linear gramicidins) (peptide)”: in assay [1], the ANTS fluorescence quench rate by Tl+ entering DC22:1PC LUVs through gramicidin channels (GFA), rate relative to control, with remdesivir 1 to 3 μM (no observable effect at 1 μM) is 2 fold. The ANTS fluorescence quench rate by Tl+ entering DC22:1PC LUVs through gramicidin channels (GFA), rate relative to DMSO control, with ivermectin 1 to 10 μM (12-fold at 1 μM) in assay [2] is 17 fold.
